# B1: BCY15468 Ni:A del; Ti:A del; Nii:Ac (N-terminal acetyl cap) (peptide)
# chain: CSPDAHLGCISYC
# Target: human His6-TfR1, P02786
# Assay: SPR
# Conditions: chain shown with the change
# Sequence of human His6-TfR1, P02786 (P02786 89-760): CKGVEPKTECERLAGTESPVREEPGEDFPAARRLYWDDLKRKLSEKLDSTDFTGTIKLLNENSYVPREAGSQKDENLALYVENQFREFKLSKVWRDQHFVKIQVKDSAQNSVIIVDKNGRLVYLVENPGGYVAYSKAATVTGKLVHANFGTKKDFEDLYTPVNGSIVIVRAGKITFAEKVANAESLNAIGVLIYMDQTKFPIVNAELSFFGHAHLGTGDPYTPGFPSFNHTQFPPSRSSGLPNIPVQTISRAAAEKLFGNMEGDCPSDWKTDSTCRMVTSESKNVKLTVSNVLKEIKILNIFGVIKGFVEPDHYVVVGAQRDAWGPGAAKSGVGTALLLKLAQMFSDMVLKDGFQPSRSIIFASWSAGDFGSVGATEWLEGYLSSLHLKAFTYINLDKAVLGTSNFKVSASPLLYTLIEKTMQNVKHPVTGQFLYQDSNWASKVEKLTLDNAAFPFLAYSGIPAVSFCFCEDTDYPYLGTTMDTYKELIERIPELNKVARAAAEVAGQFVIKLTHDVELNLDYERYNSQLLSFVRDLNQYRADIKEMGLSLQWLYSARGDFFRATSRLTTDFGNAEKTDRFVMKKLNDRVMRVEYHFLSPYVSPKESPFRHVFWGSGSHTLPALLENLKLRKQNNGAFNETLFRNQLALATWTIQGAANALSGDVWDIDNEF
binder,measurement,value
B1,Kd,46 nM
